Source: US20170267771A1 (BIONOVION HOLDING B V, published 2017)

Columns and labels:
[1] = target: human CD27, full length, expressed on cells (CHO-K1.CD27, MCF-7, HEK293T, human T cells) (human) (UniProt P26842); assay: cell ELISA on CHO-K1.hCD27 cells
[2] = target: human CD27, full length, expressed on cells (CHO-K1.CD27, MCF-7, HEK293T, human T cells) (human) (UniProt P26842); assay: competition cell ELISA on CHO-K1.CD27 cells; competitor recombinant CD70 fusion protein (0.5 ug/ml)
[3] = target: recombinant soluble hCD27-Fc fusion protein (rhCD27/Fc chimera, R&D systems cat. no. 382-CD) (human) (UniProt P26842); assay: competition cell ELISA: rhCD27-Fc (0.5 ug/ml) preincubated with antibody, binding to CHO-K1.CD70 cells
[4] = target: recombinant soluble hCD27-Fc fusion protein (rhCD27/Fc chimera, R&D systems cat. no. 382-CD) (human) (UniProt P26842); assay: competition cell ELISA (CHO-K1.CD70 competition assay): antibody dilutions mixed with rhCD27-Fc chimera, mix put on CHO-K1.CD70 cells, bound CD27-Fc detected with anti-human Ig-HRP; blocked ligand: hCD70 on the cells
[5] = target: T1, human CD27, full length, expressed on cells (CHO-K1.CD27, MCF-7, HEK293T, human T cells) (human, UniProt P26842 20-260); assay: cell ELISA on CHO-K1.hCD27 cells
T1 construct: whole, on cells; Full length cDNA of hCD27 in pCI-neo (CHO-K1), a retroviral vector (MCF-7) or pcDNA3 (HEK293T); Also stands for native CD27 on human T cells in the functional rows; also called hCD27; CHO-K1.hCD27
T1 sequence (looked up): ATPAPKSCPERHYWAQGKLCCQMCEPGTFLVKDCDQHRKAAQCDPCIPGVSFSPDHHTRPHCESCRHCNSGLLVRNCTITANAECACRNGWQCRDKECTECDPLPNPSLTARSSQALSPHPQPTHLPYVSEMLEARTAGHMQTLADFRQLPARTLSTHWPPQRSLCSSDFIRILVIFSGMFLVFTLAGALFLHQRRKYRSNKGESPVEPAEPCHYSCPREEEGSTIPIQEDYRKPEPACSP
Method: Cell-based ELISA experiments using purified hCD27 antibodies were performed to determine binding activities of hCD27 to cellularly expressed hCD27. In this cell-ELISA, all incubation steps were followed by a wash step with PEST (PBS with 0.01% Tween 20). CHO-K1.hCD27 cells were seeded (40,000 cells/well) in tissue culture plates and incubated overnight at 37° C. The next day, culture medium was removed and cells were incubated for one hour with (dilutions of) purified antibodies at 37° C. Next, cells were washed with PBST and incubated for one hour at 37° C. with 1:1,000 goat-anti-mouse IgG-HRP (Southern Biotechnology, # 1030-05). Subsequently, cells were washed 6 times with PBST and anti-hCD27 immunoreactivity was visualized with 100 μl TMB Stabilized Chromagen (Invitrogen, cat. no. SB02). Reactions were stopped with 100 μl 0.5 M […] and absorbances were read at […] and 620 nm. […] Calculated EC₅₀, representing the concentration at which 50% of the total binding signal is observed are represented in Table 1.

[6] = target: T2, mouse CD27, full length, expressed on retrovirally transduced MCF-7 cells (mouse, UniProt P41272 24-250); assay: flow cytometry on MCF-7 cells transduced with mouse CD27
T2 construct: whole, on cells
T2 sequence (looked up): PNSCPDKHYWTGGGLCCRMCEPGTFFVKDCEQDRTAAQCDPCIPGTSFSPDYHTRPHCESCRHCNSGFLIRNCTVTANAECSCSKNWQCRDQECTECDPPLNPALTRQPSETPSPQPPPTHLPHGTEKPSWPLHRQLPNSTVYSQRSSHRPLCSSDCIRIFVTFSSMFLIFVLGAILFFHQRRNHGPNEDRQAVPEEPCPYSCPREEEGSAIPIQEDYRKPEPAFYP
Method: Binding of hCD27 antibodies to mouse CD27 was determined using MCF-7 breast carcinoma cells that had been retrovirally transduced to stably express the full length cDNA encoding human CD27 or mouse CD27. Empty vector-transduced cells served as a control. Binding of the antibodies was tested by flow cytometric analysis, with validated agonistic anti-hCD27 antibodies 1A4 and CLB CD27/1; and anti-mouse CD27 LG.3A10 (Gravestein et al., 1995, Int Immunol. 7:551-7) as positive controls. These commercially available anti-hCD27 antibodies, which have been reported to harbor agonistic activities, were obtained as described in Table 2.

[7] = target: T3, recombinant soluble hCD27-Fc fusion protein (rhCD27/Fc chimera, R&D systems cat. no. 382-CD) (human, UniProt P26842 21-192); assay: SPR (Biacore 2000), antibody amine-coupled to chip, rhCD27Fc chimera as analyte, 1:1 Langmuir fit
T3 construct: Bought reagent; Fc part of the bought chimera not given
T3 sequence (looked up): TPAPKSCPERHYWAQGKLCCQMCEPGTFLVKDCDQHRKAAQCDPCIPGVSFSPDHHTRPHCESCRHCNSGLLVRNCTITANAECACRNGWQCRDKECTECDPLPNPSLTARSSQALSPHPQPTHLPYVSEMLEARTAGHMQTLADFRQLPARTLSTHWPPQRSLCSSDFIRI
Method: The binding properties of hCD27.15 antibodies were characterized in more detail using label-free surface plasma resonance using Biacore 2000 equipment. Low amounts of antibodies were coupled to a CMS sensor chip using amine coupling at pH=4.5, with Rₘₐₓ not exceeding 100 RU. This will, in combination with a high flow level (30 μl/min) yield good fits to the 1:1 Langmuir binding model. A concentration series of rhCD27Fc chimera, ranging from 0.016 nM to 1 nM, was injected for 1 minute at 30 μl/min. The dissociation was monitored for 5 minutes. The running buffer is HEPES-buffered saline with 3 mM EDTA and 0.005% P20 (HBS-EP), pH 7.4. Combination plots were made by subtraction of the signal obtained at the blank flow cell, using BIAeval 3.2. The sensor grams were fitted to a 1:1 Langmuir binding model.

[8] = target: T1, human CD27, full length, expressed on …; assay: competition cell ELISA on CHO-K1.CD27 cells; competitor recombinant CD70 fusion protein (0.5 ug/ml)
Method: The CHO-K1.CD27 assay works along the following principles: CHO-K1.CD27 cells were seeded (40,000 cells/well) in a 96-well plate and incubated overnight at 37° C. After medium removal, 50 μl recombinant mouse CD70 fusion Protein (Fc-mCD70) (0.5 μg/ml) and 50 μl of different dilutions of purified anti-hCD27 antibodies were added. […] A cDNA construct encoding this fusion protein was constructed as described by Rowley and Al-Shamkhani, 2004, J Immunol 15:172:6039-46 and used to produce Fc-mCD70 protein in 293T human embryonic kidney cells. The protein was purified by affinity chromatography on Protein A Sepharose (GE Health Care).

[9] = target: T3, recombinant soluble hCD27-Fc fusion …; assay: competition cell ELISA: rhCD27-Fc (0.5 ug/ml) preincubated with antibody, binding to CHO-K1.CD70 cells
Method: Blocking properties of the purified antibodies were studied using two competition assays. The CHO-K1.CD70 assay works along the following principles: CHO-K1.CD70 cells were seeded in a 96 well plate at a density of 40,000 cells/well. The same amount of plates was blocked by adding 300 μl medium/well, and all plates were incubated overnight at 37° C. The following day, the medium-only containing plates were emptied by flicking the plate, and 50 μl/well rhCD27-Fc chimera (0.5 μg/ml) (R&D systems cat. no. 382-CD) was added. To these plates, 50 μl of different dilutions of purified hCD27.15 antibodies were added. After 1 hour incubation at room temperature, the 100 μl rhCD27Fc/antibody mix was transferred to the CHO-K1/CD70 plate(s) from which the medium had been removed. These plate(s) were incubated for 1 hour at room temperature and then washed 3 times with PB ST. 100 μl anti-human Ig (H+L)-HRP conjugate (1:2,500) was added to every well (Promega, cat. no. W4031) and the plates were incubated for 1 hour at 37° C. After 6 final washes with PBST TMB Stabilized Chromagen (Invitrogen, cat. no. SB02) (100 μl/well) was added and the ELISA was read out as outlined above. […] Calculated IC₅₀ values of hCD27.15 and the positive control 1A4, which represent the concentration at which half of the inhibition is observed, are presented in Table 1.

“anti-hCD27, clone 1A4 (Beckman Coulter, cat. no. IM2034) (antibody)” was tested, and the EC50 [1] was 0.033 µg/mL, the IC50 [2] was 0.0937 µg/mL and the IC50 [3] was 0.37 µg/mL.

Work on “anti-hCD27, clone 57703 (R&D systems, cat. no. MAB382) (antibody)” yielded an IC50 (read off the curve) [4] of 200 ng/mL.

B1: monoclonal antibody hCD27.15 (hybridoma hCD27.15, ATCC PTA-11008) (antibody, mouse IgG1, V domains shown)
VH: EVRLQQSGADLVKPGASVKLSCTASGFIIKATYMHWVRQRPEQGLEWIGRIDPANGETKYDPKFQVKATITADTSSSTAYLQLNSLTSDDTAVYYCARYAWYFDVWGAGTTVTVSS
VL: DIQMTQSPASLSASVGDTVTITCRASENIYSFLAWYHQKQGRSPQLLVYHAKTLAEGVPSRFSGSGSGTQFSLKINSLQAEDFGSYYCQHYYGSPLTFGAGTKLEVK
notes: Mouse antibody purified from hybridoma; VH is joined to a mouse IgG1 constant region and VL to the kappa constant region; also called hCD27.15 mAb; anti-hCD27 antibody hCD27.15
In the case of B1, the EC50 [5] is reported as 0.686 µg/mL, the binding result [6] is reported as “no binding” and the Kd [7] is reported as 122 nM. For the same molecule, the IC50 [8] was 0.864 µg/mL and the IC50 [9] was 1.55 µg/mL.
